In the nanobody polyreactivity screen of Harvey et al. (2022):

Test: yeast display, Sf9 membrane polyspecificity reagent, FACS + sequencing; frameworks hold sequencing errors
Method in brief: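 Sorting gates, low and high (top ~1%), were placed on anti-HA fluorescence to track expression and on streptavidin fluorescence to track reagent binding. A clone's polyreactivity label is taken from the gate it came out of. The reagent was 10% biotinylated, detergent-solubilized Sf9 membrane, applied for 1 hour at 4 °C to galactose-induced yeast display cells.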

Row | Sequence | polyreactivity (PSR sort gate)
1 | QVQLVESGGCLVQAGGSLRLSCAASGSTFRWNSIGSYRQAPVKEREFVASITSGGSTNYADSVKGRYTISRDIAKNTVYLQMNSLKPYDTAVYYCNADVRRSSYYVWLYDYWGQGTQVTVSS | low polyreactivity
2 | QVQLVESGGCLVQAGGSLRLSCAASGSTFYDYDMGWYRQAPGKERELVAAISSSVSTYYADSVKGRFTISRDNAKNTVYFQMNSLKPEDTAVYYCAADYTGVWRYDYWGQGTQVTVSS | low polyreactivity
3 | QVQLVESGGCLVQAGGSLRLSCAASGSTLIEYAMGWYRQAPGKESELVARISKSGDSTYYADSVKGRFTISRDNAKNTVYLQMISLKPEDTAVYYCAKYHRDGFYRSYLRTFDFGYWGQGTQVTVSS | low polyreactivity
4 | QVQLVESGGCLVQAGGSLRLSCAASGSTLRSHAMGWYRQAPGKERELVASISAGGSTSYADSVKGRFTISRDNAKNTVYRQMNSLKPEDTAVYYCAADNSVGSYDYWGQGTEVTVSS | low polyreactivity
5 | QVQLVESGGCLVQAGGSLRLSCAASGSTLRYYAMGWYRQAPGKERELDARIRSNGGSTYYADSVKGRFTISRDNANNTVYLQMNSLKPEETAVYYCAARTYRGQYYTGFGFGYWGQGSQVTVSS | high polyreactivity
6 | QVQLVESGGCLVQAGGSLRLSCAASGSTYPVNAMVWSRKEPGKERELDATISWNDDSTDYADSVKGRFTISRDNAKNNVYLQLKSLKPEDTAVYYCAADWHAWGLYTFNSWGQGTLVTVSS | low polyreactivity
7 | QVQLVESGGCLVQAGGSLRLSCAASGYTFVHYDMGWYRQAPGKEREFVAAISGATYYADSVTGRFTISRDNAKNTVYLQMNSLKLEDTAVYYCNAYAYVESPSDMDYWGQGTQVTVSS | low polyreactivity
8 | QVQLVESGGCLVQAGGSLRLSCAASGYTFYVYAMGWYRQAAGKVRELVSAISGGSNTYYADSVKGRFTISRDNAKNTVYLQMNSLKPEDTALYYCAKSSTTYRQRARYDYWGHGTQVTVSS | high polyreactivity
9 | QVQLVESGGCLVQAGGSLRLSCAASGYTLATYAMGWYRQAPGKERELVAAITSTGGTTYYADSVKGRFTISRDNAKNTVYLPMNSLKPEDTAVYYCNAAAALYKRYDYWGQGTQVTVSS | high polyreactivity
10 | QVQLVESGGCLVQAGGSLRLSCADSGSTFVIYYMGWYRQAPGKERELVAAISYSGGSTYYADSVKGRFTISRDNAKNTVYLQMNSLKPEDTAVYYGYDYWGQGTQVTVSS | low polyreactivity
11 | QVQLVESGGCLVQAGGSLRLSCAPSGYTFGRNAMGWYRQAPGKEWELVATISQRGGSTYYADSVKGRFTISRDNAKNTVYLQLNSLKPEDTAVYYCSAGPIYRYRRYYYWGQGTQVTVSS | high polyreactivity
12 | QVQLVESGGCLVQAGGSLRLSCASSGITFPGYAMGWYRQAPGKERELVAVIRKSGTSTYYADSVKGRFTISRDNAKNTVDLQMNSLKPEDTAVYYCAAGGPSTLDDYWGQGTQGTVSS | low polyreactivity
13 | QVQLVESGGCLVQAGGSLRLSCASSGSTFHSYAMGWYRQAPGKERELVAAISRSGGSTYYADSVKGRFTISRDNAKNTVYLQMNSLKPEDTAVYYCAARDLQFSGYYYWGQGTQVTVSS | high polyreactivity
14 | QVQLVESGGCLVQAGGSLRLSSAASGFTFDKYAMGWYRQAPGKEMELVAAISGSGGTTYYADSVKGRFTISRDNAKNTVYLQMNSLKPEDTAVYYCATRLYSIYSYGYWGQGTQVTVSS | high polyreactivity
15 | QVQLVESGGCLVQAGGSLRLSSAASGSTFQNYAMGWYRQATGKERELVAAISSGGRTYYADSVKGRFTISRDNAKNTVYLQMYSLKPEDTAVYYCAVRYRVYKFQYGYWGQGTQVTVSS | high polyreactivity
16 | QVQLVESGGCLVQAGGSLRLSSAASGSTFYYYVMGLYRQAPGKERELVAAINSGGSTYYADSVQGRFTISRDNAKNTVYLQMNSLKPEDTAVYYCAKSCSYWYQYYYWGQGSQVTVSS | low polyreactivity
17 | QVQLVESGGCLVQAGGSLRLTCAASGIIFYAYAMGWYRQAPGKEREFVAAINNSGGRTYYADSVKGRFTISRDNAKNTVYLQMHSLKPEDTAVYYCAVYSYYRRTYRREMDYWGQGTQVTVSS | high polyreactivity
18 | QVQLVESGGCLVQAGRSLRLSCAASGRTFPTYAMGWYRQAPGKERELVAAIRISGGRTYYADSVKGRFTISRDISKNTVYLQMNSLKPEDTAVYYCATRDRAGYYYWGQGTQVTVSS | high polyreactivity
19 | QVQLVESGGCLVQARGSLRLRCAASGGTFYAYAMGWYREAPGKERELVAAISRSGSTYYADSVKGRFTISRDNAKNTVYLQMNSLKPEDTAVYYCAARRARRDPVGYVYAKYVYWGQGTQVTVSS | high polyreactivity
20 | QVQLVESGGCLVQGGGSLRLTWAASGRTFPYNNMRRYRQAPGKERELVASITYTDGSTSYADCVKGRFTISRDNAKNTVYLQMNSLKPQDTADYYCAAVYYAHQDYRFDYWGQGTQVTVSS | low polyreactivity
21 | QVQLVESGGCSVQAGGSLRLICAASGYTFYINAMGWYRPAPGKERELVAVITWSSGSTYYADSVKGRFTISRDNAKNTVYLQMYSLKAEDTAVYYCAADVTYEDGAWTIQYDYWGQGTQVTVSS | high polyreactivity
22 | QVQLVESGGCVVQAGGSLRLICAASGRTFGRNVMGWYRQAPGKEMELVAAISRSGGSTYYADSVKGRFTISRDNAKNTVYLQMNSLKPEDTAVYYCAAYSVGDYYWGQGTQVTVSS | high polyreactivity

Row | Sequence | polyreactivity (PSR sort gate)
23 | QVQLVESGGDLVQAGGSLRLSCAASGSIFYINAMGWYRQAPGKERELVASISYSGTSTYYADSVKGRFTISRDNAKNTVYLQMNSLKPEDTAVYYCNAEDTPGAGDGYWGQGTQVTVSS | low polyreactivity
24 | QVQLVESGGFLDQAGGSLRLSCAASGFTFYYYAMGWYRQAHAKERELVAAITARGVSTYYADSVKGRFTISRDNAKNTVYLQMNRLNPEDTAVYYCAKRRYYYAPAIPGYYYWGQGTKVTVSS | high polyreactivity
25 | QVQLVESGGFLVQAGGSLRLTCAASGSIIENNAMGWSRQAPRKERELVDAISSDDTTNYADSVKGRFTISRDNAKNTVYLLMNRLLPVDTAVYYCNVDSGPEDKTVTYDYWGQGTQVTVSS | low polyreactivity
26 | QVQLVESGGGFVQAGASLRLSCAASGRTCHGYAMGWYRQAPGKERDLVAAINASGGRTYYAESVKGRFTISRDNAKNTVYLLMNSLNPEDTAVYYCGVYSASFRYGLANDYWGQGTQVTVSS | high polyreactivity
27 | QVQLVESGGGFVQAGCSLRLSCAASGSIFLYNAMGWYRQAPGNDRELVATISYIGGRTYYADSVKGRFSISRDKAKNTVYSQMNSLKPEDTAVYYCAAEYYVISSPSFYEYDYWGQGTQVTVSS | low polyreactivity
28 | QVQLVESGGGFVQAGGSLRLSCAACGRIFATYAMRWYRQAPGKERELVASFSYSDGSTYADSVKGRFTISRDNAKNTVYLQMNSLKPEDTAVYYCAAERLTHWGAFAAYDYWGQGTQVTVSS | low polyreactivity
29 | QVQLVESGGGFVQAGGSLRLSCAASGFTFQYYGMGWYRQAPGKERELVAAINWSGGRTYYADSVKGRFTISRDNAKNTVYLQMNSLKPEDTAVYYCAATRSFSGGYGYVSYDYWGQGTQVTVSS | high polyreactivity
30 | QVQLVESGGGFVQAGGSLRLSCAASGIIFDYDAMGWYRQAPGKERELVAAISKRGGSTYYADSVKGRFTISRDHAKNTVYFQMNSLKPEDTAVYYCAAVYAREAKRYDYWGPGTQVTVSS | high polyreactivity
31 | QVQLVESGGGFVQAGGSLRLSCAASGIIFEYYTMGWYRQAPGKERELVASINYDGDSTYYADSVKGRFTISRDNAKNTVYLQMNSLKPEDTAVYYCSAEFYYVYSSFGHYYWGQGTQVTVSS | low polyreactivity
32 | QVQLVESGGGFVQAGGSLRLSCAASGIIFTLYTMGWYIQAPGKERELVASISTRGGSTYYADSVKGRFTISRDYAKNTVYLQMNSLKPEDTAVYYCAAQGGYPVWRYYYWGQGTQVTVSS | high polyreactivity
33 | QVQLVESGGGFVQAGGSLRLSCAASGLTLFRYAMGWYSQAPGKEREFVAAISPSGDRTYYADSVKGRFTISRDNAKNTVDLQMNSLKPEDTAVYYCNAWRYDYWGQGTQVTVSS | high polyreactivity
34 | QVQLVESGGGFVQAGGSLRLSCAASGRIFHHNAMGGYRQAPGKVRELDATITKSGGSTYADSVKGRFTISRANAKNTVYLQMNSRKPEETAVYSCAATSVGAYGVRKYWYDYWAQGTQVTVSS | low polyreactivity
35 | QVQLVESGGGFVQAGGSLRLSCAASGRIFRIYAMGWYRQAPGKERELVAAITYRGGSTNYADSVKGRFTISRDNAKNTVYVQINSLKPEDTAVYDCAARSVYYGYTGYSYWGPGTQVTVSS | high polyreactivity
36 | QVQLVESGGGFVQAGGSLRLSCAASGRIFRLYAMGWYRQAPGKEREFVAAITFSGGRTYYADSVKGRFTISRDNAKNNVYLQMNSLKPEDTAVYYCAARGQTGYYSGVGYWGQGTQVTVSS | high polyreactivity
37 | QVQLVESGGGFVQAGGSLRLSCAASGSIFYYNAMGWYRQAPGKERELVAAIDWSGGITYYADSVKGRFTISRDNAKNTVYLQMNSLKPEDTAVYYCNVPMPPAKAEYGYWGQGTQVTVSS | high polyreactivity
38 | QVQLVESGGGFVQAGGSLRLSCAASGSTFHDYVMGWYRQAPGKERELVATIRRGASTYYADSVKGRFTISRDNEKNTVYLQMNSLIPEDTAVYYCAVPATGGYFSSEYDYWGQGTQVTVSS | low polyreactivity
39 | QVQLVESGGGFVQAGGSLRLSCAASVIFGYYAMGWYSQAPGKERELVAAINWRGDSTYYADSVKGRFTISRDNAKNTVYLQMNSLKPEDTAVYYCAAQRRDIALLYDYWGQGTQVTLSS | low polyreactivity
40 | QVQLVESGGGFVQAGGSLRLSCAASVSILWWYAMGWSRKATVKERELVAAITWSGTSTYYADSVKGRFTISRVNGKNTLYLQMISLKPEETAVYYCAVRSYVNGGWYDYWGQGTQGTVSS | high polyreactivity
41 | QVQLVESGGGFVQAGGSLRLTCAASGYIFANYGMGWYRQAPGKQMELVAAISGSGGSTYYADSVKGRFTISRDNAKNTVYLQMNSLKPQDTAVYYCAALSNWWSYFTCYDGSDGFDYWVQGTQVTVSS | low polyreactivity
42 | QVQLVESGGGFVQAGGSLRVSCAASGSIFRPDAMGWYRPAPGKERELVAAITWSGGRTYYADSVKGRFTISRDNAKNTVDLQMNSLKPEDTAVYYCAARPRYYYWFKSGTRVEYDYWGQGTQVTVSS | high polyreactivity
43 | QVQLVESGGGFVQAGGTLRLSCAASGFTFGYNAMGWYRHAPGKERELVAAISFSDGITYYADSVKRRFTISRDNAKNNVYLQMNSLKPEDTAVYYCAADLYFEYEYWGQGTQVTVSS | high polyreactivity
